The conditions of series [1]: commercial drugs; cited from earlier work.
The subject of a further series is human PBMC. In words: PBMC assay on human cells. It is filed as cell-based. The procedure:
(§1) Efficacy assays were performed using human and monkey PBMC as described above. CD28 results in PBMC assays:
(§2) In order to assay the ex-vivo efficacy of monomers, they were tested on isolated peripheral blood lymphocytes (PBMC). […]. Monomer protein was added in varying concentrations to each culture and incubation occurred for 3 days at 37° C. in a CO2 containing atmosphere. During the last 9 hours, cultures were pulsed with 1 uCi per well of ^3H thymidine (ICN, Costa Mesa, Calif.) and the incorporation of radioactivity was measured on a Wallac Trilux Microbeta scintillation counter (Perkin Elmer, Boston, Mass.). See, FIG. 23.

For the next series, the system named is monkey PBMC. As to the kind of experiment: PBMC assay on monkey cells. It is filed as cell-based, cynomolgus monkeys. The protocol:
as §1, §2

Another series has as its target human IgE (Homo sapiens, UniProt P01854). In words: Biacore affinity measurements on immobilized human IgE. It is filed as binding. The following applies: IgE on CM5 chip. The source says: (§3) Human IgE was immobilized to a CM5 chip (BiaCore) using standard NHS/EDC methods. Sample proteins were dialyzed into HBS buffer overnight, and the dialysis buffer was used as a running buffer for the experiment. Sample proteins were run successively over IgE or ethanolamine coated flow cells, and the data analyzed using the BiaEvaluation software package.
In general terms: SPR reads the build-up and loss of mass on a sensor chip optically.

For series [2], the target named is T1, recombinant human FcERI protein (human, UniProt P12319 26-205, limits assumed).
T1 construct: also called recombinant soluble IgE receptor; IgE receptor R1
T1 sequence (looked up): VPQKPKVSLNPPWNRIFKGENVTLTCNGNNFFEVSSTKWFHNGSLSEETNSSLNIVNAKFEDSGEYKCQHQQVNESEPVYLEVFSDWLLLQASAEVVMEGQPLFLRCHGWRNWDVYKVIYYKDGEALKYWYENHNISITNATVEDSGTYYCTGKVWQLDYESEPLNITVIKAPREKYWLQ
As to the kind of experiment: Biacore, human IgE on CM5 chip.
From the text: as §3

Enbrel: the “Human T1/2” value in series [1] is 103 h.
Regarding Remicade: TNFa Antibody, in series [1], the “Human T1/2” value is 216 h.
In the case of Rituxan: CD20 Antibody, the “Human T1/2” value in series [1] is 78 h.

B1: CD28 10: CD28 trimer, sequence >CD28-A10 (protein)
chain: CGPGRFQCESGQCVPATWVCDGDDDCADGSDEKSCATTAPTCESNQFQCGSGQCLPGTWRCDGVNDCADSSDETGCGRPGPGATSAPAACGPGRFQCNNGNCVPQTLGCDGDNDCGDSSDEANCSAPASEPPGSL
With B1, the inhibition result in the series with human PBMC and in the series on monkey PBMC was “inhibition = 81%” each time.

B2: FcERI: recombinant human FcERI protein, the IgE receptor (protein)
chain: VPQKPKVSLNPPWNRIFKGENVTLTCNGNNFFEVSSTKWFHNGSLSEETNSSLNIVNAKFEDSGEYKCQHQQVNESEPVYLEVFSDWLLLQASAEVVMEGQPLFLRCHGWRNWDVYKVIYYKDGEALKYWYENHNISITNATVEDSGTYYCTGKVWQLDYESEPLNITVIKAPREKYWLQ
For the molecule B2, in the series with human IgE, the ka is 8.4 × 10^3 and the kd is on record as 3.8 × 10^−3.

B3: human IgE (antibody)
chain: ASTQSPSVFPLTRCCKNIPSNATSVTLGCLATGYFPEPVMVTWDTGSLNGTTMTLPATTLTLSGHYATISLLTVSGAWAKQMFTCRVAHTPSSTDWVDNKTFSVCSRDFTPPTVKILQSSCDGGGHFPPTIQLLCLVSGYTPGTINITWLEDGQVMDVDLSTASTTQEGELASTQSELTLSQKHWLSDRTYTCQVTYQGHTFEDSTKKCADSNPRGVSAYLSRPSPFDLFIRKSPTITCLVVDLAPSKGTVNLTWSRASGKPVNHSTRKEEKQRNGTLTVTSTLPVGTRDWIEGETYQCRVTHPHLPRALMRSTTKTSGPRAAPEVYAFATPEWPGSRDKRTLACLIQNFMPEDISVQWLHNEVQLPDARHSTTQPRKTKGSGFFVFSRLEVTRAEWEQKDEFICRAVHEAASPSQTVQRAVSVNPGK
notes: Immobilized on plates or on a CM5 chip; variable regions and light chain not described
For orientation: Kd means the equilibrium constant for the complex coming apart. In the case of B3, in series [2], the Kd turned out to be 450 nM.

(Values after patent US20050089932A1, “Novel proteins with targeted binding” (Avidia Research Institute, priority 2001, published 2005).)
